“Also recorded” adds a separate entry of the source.
Key:
Assay type in all cases: cell-based
[1] = tested on: SMAD1/5/8 phosphorylation in Huh7 cells; experiment: Western blot of SMAD1/5/8 phosphorylation in Huh7 cells
Method: (d) ERFE effects on BMP/SMAD signalling measured by SMAD 1/5/8 phosphorylation: To confirm the suppression of BMP/SMAD signalling, we analysed phosphorylation of SMAD1/5/8, required to transduce the signal leading to HAMP upregulation. Analysis was carried out by Western blot according to the following methodology: Cells were lysed at 4° C. using RIPA buffer (Thermo Scientific) containing protease/phosphatase inhibitor (Cell Signalling). Lysates were denatured at 95° C. and separated on a 10% SDS polyacrylamide gel (Bio-Rad), following the manufacturer's instruction. Protein sizes were estimated by using the Novex Sharp Pre-Stained Protein Ladder (life technologies). Protein was transferred to a nitrocellulose membrane, then blocked with milk/TBS for 1 h. Antibodies used were anti-P-SMAD 1/5 (S463s/465)/9(S465/467) (Cell signalling 13820S 1:500), anti-Smad1 (Cell Signalling 6944S 1:500), anti-β-actin-peroxidase (Sigma A3854 1:10 000), and Anti-rabbit IgG HRP conjugated (RnD systems HAP008 1:5000). […] In this case Huh7 cells were treated with mouse ERFE (10 μg/ml) or BMP6 and LDN, a small molecule inhibitor of BMPs, (100 nM), alone or in combination, for 30 min and pSMAD/SMAD ratios values were calculated by densitometry. Erythroferrone caused a decrease in SMAD phosphorylation relative to non-treated cells (FIG. 3D).

[2] = tested on: Huh7 cells; experiment: qRT-PCR of BMP/SMAD target genes in Huh7 cells treated with ERFE; conditions: Huh7, mouse ERFE 10 μg/ml vs vehicle
Method: (§1) (b) Gene expression microarray: Microarray analysis of Huh7 cells treated with mouse or human erythroferrone was carried out to test the activity of erythroferrone on the BMP/SMAD signalling pathway. Generally cell treatments were carried out according to the following protocol: Huh7 and HepG2 were cultured in Dulbecco's Modified Eagle's Medium—High Glucose (Sigma), supplemented with 10% Fetal Bovine Serum (Sigma), 1% Penicillin-Streptomycin (Sigma) and 1% L-Glutamine (Sigma), unless otherwise indicated. Cells were plated 24 h before treatments in 24-well (gene expression analysis) or 12-well (protein analysis) cell culture plates. At the time of treatment, cells were washed with PBS and fresh media was added.
(§2) (c) RNA isolation, cDNA synthesis and qRT-PCR: Suppression of several BMP-target genes: HAMP, ID1, ID3, SMAD6 and SMAD7 was further confirmed by qRT-PCR. Cells were lysed and RNA was isolated using the RNeasy Plus kit (Qiagen), followed by RNA quantification and quality assessment using Nanodrop (Thermo Fisher). cDNA was synthesized using the High Capacity RNA-to-cDNA kit (Applied Biosystems). Gene expression was assessed using quantitative real-time PCR with Taqman Gene Expression Master Mix and inventoried Taqman Gene expression assays (Applied Biosystems) specific for the genes of interest according to the manufacturer's instructions.

[3] = tested on: Huh7 cells; experiment: HAMP and ID1 qRT-PCR in Huh7 cells treated with BMPs with or without mouse ERFE; conditions: 2 nM BMP 2/6, BMP5, BMP6 or BMP7 + 10 μg/ml mouse ERFE, 6 h, serum-free media
Method: as §1
as §2, with “instructions. […]” for “instructions.”

B1: mouse ERFE: recombinant mouse erythroferrone (SEQ ID NO: 2); monoFC-muErfe is a monomeric FC murine ERFE fusion (protein, listed as Mus musculus)
chain: MASRRPVGARTLLACASLLAAMGLGVPESAEPVGTHARPQPPGAELPAPPANSPPEPIAHAHSVDPRDAWMLFVKQSDKGINSKRRSKARRLKLGLPGPPGPPGPQGPPGPFIPSEVLLKEFQLLLKGAVRQRESHLEHCTRDLPASGSPSRVPAAQELDSQDPGALLALLAATLAQGPRAPRVEAAFHCRLRRDVQVDRRALHELGIYYLPEVEGAFHRGPGLNLTSGQYTAPVAGFYALAATLHVALTEQPRKGPTRPRDRLRLLICIQSLCQHNASLETVMGLENSSELFISVNGVLYLQAGHYSVFLDNASGSSLTVRSGSHFSAILLGL
With B1 the “SMAD phosphorylation after BMP6 stimulation” value ([1]; Huh7, mouse ERFE 10 μg/ml with BMP6, 30 min) was “blunted the increase”, the “SMAD 1/5/8 phosphorylation relative to non-treated cells” value ([1]; Huh7, mouse ERFE 10 μg/ml, 30 min, baseline) was “decrease” and the “expression of BMP-target genes HAMP, ID1, ID3, SMAD6 and SMAD7” value [2] was “Suppression”. The “expression of FGA (JAK/STAT3 target gene)” value [2] was “no changes” and the “HAMP and ID1 expression / BMP/SMAD signalling in BMP-treated Huh7 cells” value [3] was “suppresses; also recorded: suppression”.

Source: patent US20210196823A1, “Methods of Treating Metabolic Disease” (Pfizer Inc., priority 2018, published 2021)
